Target: T1, recombinant activated factor VII (UniProt P08709 61-212; P08709 213-466)
T1 sequence (looked up) 1: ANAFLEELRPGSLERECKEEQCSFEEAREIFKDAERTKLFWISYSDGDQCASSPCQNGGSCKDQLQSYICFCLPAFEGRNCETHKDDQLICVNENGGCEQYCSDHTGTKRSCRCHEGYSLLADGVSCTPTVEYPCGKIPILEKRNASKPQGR
T1 sequence (looked up) 2: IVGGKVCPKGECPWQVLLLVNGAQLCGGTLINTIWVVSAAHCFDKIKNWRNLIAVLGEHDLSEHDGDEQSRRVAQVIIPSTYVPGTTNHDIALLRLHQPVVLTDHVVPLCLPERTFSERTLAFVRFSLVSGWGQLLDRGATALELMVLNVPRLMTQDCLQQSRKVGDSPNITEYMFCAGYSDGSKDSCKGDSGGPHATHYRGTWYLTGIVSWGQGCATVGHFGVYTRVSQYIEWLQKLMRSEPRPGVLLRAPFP
Experiment: BLI

- binding result: binds
B1: endothelial cell protein C receptor (receptor)
chain: SQDASDGLQRLHMLQISYFRDPYHVWYQGNASLGGHLTHVLEGPDTNTTIIQLQPLQEPESWARTQSGLQSYLLQFHGLVRLVHQERTLAFPLTIRCFLGCELPPEGSRAHVFFEVAVNGSSFVSFRPERALWQADTQVTSGVVTFTLQQLNAYNRTRYELREFLEDTCVQYVQKHISAENTKGSQTSRSYTS
